From paper doi:10.1101/641308 come the findings set out here.

The assay has as its target OcwA (Outer cell-wall protein A), nonaheme cytochrome TherJR_2595 from Thermincola potens JR (Thermincola potens JR). The assay is described as follows: SEC.

In turn, “OcwA (Outer cell-wall protein A), nonaheme cytochrome TherJR_2595 from Thermincola potens JR (natural protein)” returned a stoichiometry N of 2.
